Experimental data from IntAct's records for PubMed 29039417.

B1: Protein PTHB1 (Homo sapiens), Q3SYG4 (parent)
chain: MSLFKARDWWSTILGDKEEFDQGCLCLANVDNSGNGQDKIIVGSFMGYLRIFSPHPAKTGDGAQAEDLLLEVDLRDPVLQVEVGKFVSGTEMLHLAVLHSRKLCVYSVSGTLGNVEHGNQCQMKLMYEHNLQRTACNMTYGSFGGVKGRDLICIQSMDGMLMVFEQESYAFGRFLPGFLLPGPLAYSSRTDSFLTVSSCQQVESYKYQVLAFATDADKRQETEQQKLGSGKRLVVDWTLNIGEQALDICIVSFNQSASSVFVLGERNFFCLKDNGQIRFMKKLDWSPSCFLPYCSVSEGTINTLIGNHNNMLHIYQDVTLKWATQLPHIPVAVRVGCLHDLKGVIVTLSDDGHLQCSYLGTDPSLFQAPNVQSRELNYDELDVEMKELQKIIKDVNKSQGVWPMTEREDDLNVSVVVSPNFDSVSQATDVEVGTDLVPSVTVKVTLQNRVILQKAKLSVYVQPPLELTCDQFTFEFMTPDLTRTVSFSVYLKRSYTPSELEGNAVVSYSRPTDRNPDGIPRVIQCKFRLPLKLICLPGQPSKTASHKITIDTNKSPVSLLSLFPGFASQSDDDQVNVMGFHFLGGARITVLASKTSQRYRIQSEQFEDLWLITNELILRLQEYFEKQGVKDFACSFSGSIPLQEYFELIDHHFELRINGEKLEELLSERAVQFRAIQRRLLARFKDKTPAPLQHLDTLLDGTYKQVIALADAVEENQGNLFQSFTRLKSATHLVILLIALWQKLSADQVAILEAAFLPLQEDTQELGWEETVDAAISHLLKTCLSKSSKEQALNLNSQLNIPKDTSQLKKHITLLCDRLSKGGRLCLSTDAAAPQTMVMPGGCTTIPESDLEERSVEQDSTELFTNHRHLTAETPRPEVSPLQGVSE
partner: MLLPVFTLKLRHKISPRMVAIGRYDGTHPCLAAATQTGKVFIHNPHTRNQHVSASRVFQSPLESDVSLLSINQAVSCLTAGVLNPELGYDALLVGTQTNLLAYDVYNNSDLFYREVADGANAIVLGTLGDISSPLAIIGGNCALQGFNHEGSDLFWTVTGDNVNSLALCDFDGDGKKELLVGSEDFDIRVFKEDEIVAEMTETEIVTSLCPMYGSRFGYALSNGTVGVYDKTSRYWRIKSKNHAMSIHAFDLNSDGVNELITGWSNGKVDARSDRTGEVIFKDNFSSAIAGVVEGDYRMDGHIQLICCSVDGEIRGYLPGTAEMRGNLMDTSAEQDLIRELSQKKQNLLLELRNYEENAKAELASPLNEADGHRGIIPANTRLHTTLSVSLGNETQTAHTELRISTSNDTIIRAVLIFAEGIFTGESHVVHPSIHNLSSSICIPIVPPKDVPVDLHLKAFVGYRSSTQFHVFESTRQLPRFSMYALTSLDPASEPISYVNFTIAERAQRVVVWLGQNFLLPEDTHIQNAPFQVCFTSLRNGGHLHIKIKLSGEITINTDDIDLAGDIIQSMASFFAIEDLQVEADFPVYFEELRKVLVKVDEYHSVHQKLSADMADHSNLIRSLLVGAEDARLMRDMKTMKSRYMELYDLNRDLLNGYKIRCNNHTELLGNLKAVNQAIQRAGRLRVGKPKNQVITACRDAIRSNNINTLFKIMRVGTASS

Variants of: B1
Settings: with bbs2_human BBS2, Q9BXC9

Variant | effect of a mutation on the interaction
Y460A | with no effect
F646E | with no effect
D422K | with no effect
D608K | with no effect
Y495K | with no effect
H652K | with no effect
N614A | with no effect
R598E | with no effect
L452A | with no effect
Y599K | with no effect
M578E | with no effect
G628A | with no effect
E663K | with no effect
E604A | with no effect
P497A | with no effect
Q447A | with no effect
V440A | with no effect
L491A | with no effect
L620K | with no effect
S639E | with no effect
G659A | with no effect
R449E | with no effect
G502K | with no effect
S458K | with no effect
V485E | with no effect

Variant | effect of a mutation on the interaction
S558E | with no effect
S425A | with no effect
K526E | with no effect
P564E | with no effect
D470N | disrupting interaction strength
S498A | with no effect
V450A | with no effect
R407A | with no effect
K554S | disrupting interaction strength
S541K | with no effect
D410A | with no effect
L411A | with no effect
L665R | disrupting interaction strength
L665E | with no effect
P479A | with no effect
R678K | with no effect
L591A | with no effect
V575E | with no effect
R656E | with no effect
P438E | with no effect
S593A | with no effect
N420E | with no effect
R528K | with no effect
S439K | with no effect

Second part, the variant after the results:

effect of a mutation on the interaction | Variant
with no effect | S855K
with no effect | S723E
with no effect | L752K
with no effect | R818K
with no effect | Q883E
with no effect | I735K
with no effect | K803E
with no effect | K803A
with no effect | R683A
with no effect | L709A
with no effect | K728E
with no effect | G701K
with no effect | K789E
with no effect | V838E
with no effect | V838K
with no effect | I801K
with no effect | L736K
with no effect | Q835A
with no effect | D859E
with no effect | Q742K
with no effect | A832E
with no effect | W768E

effect of a mutation on the interaction | Variant
with no effect | Q764K
with no effect | A690K
with no effect | V706A
with no effect | C826A
with no effect | G884K
with no effect | F864K
with no effect | T829E
with no effect | P802E
with no effect | S777K
with no effect | T871A
disrupting interaction strength | L699K
with no effect | S729E
with no effect | I707E
with no effect | N716K
with no effect | S886K
with no effect | L870K
with no effect | T845E
with no effect | L814A
with no effect | H869K
with no effect | T805K
with no effect | L698E
